Source: US20050049402A1

Columns and labels:
[1] = molecular target: human TNFα (Tumor Necrosis Factor-alpha), soluble (human) (UniProt P01375); test: cell-based or functional assay
[2] = molecular target: monkey (cynomolgous macaque) GST-TNFα (cynomolgous macaque) (UniProt P79337); test: ELISA, plate coated with 2 µg/ml monkey (cynomolgus macaque) GST-TNFα, HRP goat anti-human IgG detection
[3] = molecular target: transmembrane mutant TNFα expressed on the surface of CHO cells (UniProt P01375); test: cell-based or functional assay
transmembrane mutant TNFα expressed on the surface of CHO cells, sequence (P01375 whole entry, change not shown, form in doubt): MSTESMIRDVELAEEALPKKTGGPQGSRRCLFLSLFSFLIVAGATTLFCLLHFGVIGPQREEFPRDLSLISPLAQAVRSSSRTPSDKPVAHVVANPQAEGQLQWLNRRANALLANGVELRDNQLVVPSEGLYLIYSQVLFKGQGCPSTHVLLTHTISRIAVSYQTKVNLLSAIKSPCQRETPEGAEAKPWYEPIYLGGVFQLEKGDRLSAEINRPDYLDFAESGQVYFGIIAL

human TNFα (Tumor Necrosis Factor-alpha), soluble (human), sequence (P01375 77-233): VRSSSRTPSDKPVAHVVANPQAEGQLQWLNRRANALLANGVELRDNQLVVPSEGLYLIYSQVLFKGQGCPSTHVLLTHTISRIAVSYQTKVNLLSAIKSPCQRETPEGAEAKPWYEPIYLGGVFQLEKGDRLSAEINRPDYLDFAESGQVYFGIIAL
monkey (cynomolgous macaque) GST-TNFα (cynomolgous macaque), sequence (P79337 77-233): as the sequence (P01375 77-233) above, with L37V, R44T, T72N, R138L counted along it

Row | Substance | IC50 1 hr Pre-incubation, TNF induced apoptosis in MCF-7 cells [1] [nM] | IC50 18 hr Pre-incubation, TNF induced apoptosis in MCF-7 cells [1] [nM] | In vivo Potency (IC50), ALT, hTNFα/D-GalN hepatic injury in mice [1] [nM] | In vivo Potency (IC50), human TNFα-induced IL-6 in mice [1] [nM] | EC50 (read off the curve) [2] [ng/mL] | ADCC (%) [3] [%] | CDC (%) [3] [%]
1 | Etanercept (Fc fusion) | 0.0034 | 0.0022 | 27 | 27 | 3 | – | –
2 | irrelevant human IgG1 control antibody | – | – | – | – | – | 2 | 2
